{"source": "patent US10287317B2", "about": "“Proprotein convertase subtilisin kexin type 9 (PCSK9) allosteric binding ligands to modulate serum low density lipoprotein (LDL) levels” (SRX Cardio, LLC, priority 2013, dated 2019)", "format_in_all_cases": "cell-based", "key": {"normal PCSK9 (WT)": {"target": "normal PCSK9 (WT) (Homo sapiens, UniProt Q8NBP7)", "sequence (Q8NBP7 153-692)": "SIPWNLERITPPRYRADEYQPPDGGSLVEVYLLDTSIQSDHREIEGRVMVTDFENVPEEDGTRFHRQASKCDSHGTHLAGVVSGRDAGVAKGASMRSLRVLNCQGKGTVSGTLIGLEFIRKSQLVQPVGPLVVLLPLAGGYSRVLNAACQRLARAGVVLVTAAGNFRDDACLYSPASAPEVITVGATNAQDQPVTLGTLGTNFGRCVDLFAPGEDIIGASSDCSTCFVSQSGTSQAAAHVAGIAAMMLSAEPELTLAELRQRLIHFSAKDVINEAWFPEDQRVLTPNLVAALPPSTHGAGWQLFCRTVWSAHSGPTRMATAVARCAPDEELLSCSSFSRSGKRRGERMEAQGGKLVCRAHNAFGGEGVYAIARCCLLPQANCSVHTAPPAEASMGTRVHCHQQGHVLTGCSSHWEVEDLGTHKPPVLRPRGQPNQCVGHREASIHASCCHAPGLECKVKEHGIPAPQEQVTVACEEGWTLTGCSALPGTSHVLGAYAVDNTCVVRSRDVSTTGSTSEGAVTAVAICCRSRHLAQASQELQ", "experiment": "Cellular diI-LDL uptake in HepG2 cells with WT PCSK9", "conditions": "HepG2, WT 1.2 ug/ml, pre-incubated 3 hrs at 37 C, dose dependent manner (FIG. 6)", "method": "(§1) After 16 h, dil-LDL (5 ug/ml) was added to the incubation mixtures. After 4 h, fluorescence was measured (Ex: 520 nm/Em: 575 nm; cutoff: 550 nm). Dil-LDL uptake is calculated as RFU corrected for the number of cells. The PCSK9 and −/+SRX55 [SEQ ID NO: 2] mixtures were pre-incubated for 3 hrs at 37 C prior to addition to the cells.\n(§2) LDL internalization was measured by uptake of a fluorescently tagged LDL molecule (diI-LDL) in the absence of exogenous PCSK9 (Cnt), in the presence of exogenous PCSK9 (normal PCSK9=WT, D374Y mutant PCSK9=DY), or in the presence of PCSK9 and a tested peptide (indicated as SRX##, or SRX if a single peptide results is shown in a graph). […]\n(§3) Peptide activity was assessed by culturing cells with: i) no SRX peptide/PCSK9 protein complex (control, Cnt); ii) PCSK9 protein; and iii) SRX peptide/PCSK9 complex. […]\nCells were cultured using one of the combinations of conditions described in the preceding paragraph for 16 hours. After 16 hours, a quantity of diI-LDL (Low density lipoprotein coupled with 1,1′-dioctadecyl-3,3,3′,3′-tetramethylindocarbocyanine perchlorate) needed to bring the media concentration to 5 ug/mL of diI-LDL was added to the culture well and cells continued to be cultured under these new conditions for 4 additional hours. […] Fluorescence of the diI-LDL in the specimens were quantified using excitation at 530 nm and resulting emission at 580 nm. […]"}, "PCSK9-D374Y protein": {"target": "PCSK9-D374Y protein (Homo sapiens, UniProt Q8NBP7, D374Y)", "sequence (Q8NBP7 153-692 D374Y)": "as the sequence (Q8NBP7 153-692) above, with D222Y counted along it", "experiment": "Cellular diI-LDL uptake in HuH7 cells with PCSK9-D374Y", "method": "(§4) HuH7 cells were incubated in a 96-well plate for a total of 20 h in the absence (Cnt) or presence of 0.5 μg/ml PCSK9-D374Y protein alone (DY) or mixed with 100 uM of various SRX peptides. After 16 h, dil-LDL (5 ug/ml) was added to the incubation mixtures. After 4 h, fluorescence was measured (Ex: 520 nm/Em: 575 nm; cutoff: 550 nm). Dil-LDL uptake is calculated as RFU corrected for the number of cells.\nas §4, with “PCSK9 GOF-D374Y” for “PCSK9-D374Y”, “increasing concentrations” for “100 uM”\nLDL internalization was measured by uptake of a fluorescently tagged LDL molecule (diI-LDL) in the absence of exogenous PCSK9 (Cnt), in the presence of exogenous PCSK9 (normal PCSK9=WT, D374Y mutant PCSK9=DY), or in the presence of PCSK9 and a tested peptide (indicated as SRX##, or SRX if a single peptide results is shown in a graph).\nCells, such as HepG2, HuH7, FL83B or a cell line transfected with a short-hairpin PCSK9 knockdown sequence such as HepG2/shPCSK9, HuH7/shPCSK9, FL83B/shPCSK9, were seeded at 2×10^4 cells/well in a 96-well plate and cultured at 37 degC in RPMI+10% FBS. After approximately 24 hours, the cell media was aspirated off and replaced with RPMI+3-5 mg/mL LPDS (Lipoprotein Deficient Serum, Millipore) media for further experimentation. Benjannet et al., “Effects of the prosegment and pH on the activity of PCSK9: evidence for additional processing events” J Biol Chem. 285(52): 40965-40978 (2010).\nPeptide activity was assessed by culturing cells with: i) no SRX peptide/PCSK9 protein complex (control, Cnt); ii) PCSK9 protein; and iii) SRX peptide/PCSK9 complex. Various permutations of these experimental conditions were also used, including: i) the addition of wild type PCSK9 (WT); ii) a mutant PCSK9 (e.g., D374Y mutant PCSK9, DY); iii) various SRX peptides and/or PCSK9 at the same concentration and/or combinations; iv) various SRX peptides and/or PCSK9 at different concentrations and/or combinations; v) the use of different cells, as mentioned above, with or without a transfected short-hairpin sequence; vi) a pre-incubation of the PCSK9 and SRX peptide (e.g., 1, hour, 2 hours, 3 hours, 4 hours etc.); vii) various temperatures including, but not limited to, body temperature (e.g., 37° C.), supraphysiologic temperature (e.g., 39° C.); and viii) with/without agitation (e.g., shaker or gentle periodic vortexing).\nCells were cultured using one of the combinations of conditions described in the preceding paragraph for 16 hours. After 16 hours, a quantity of diI-LDL (Low density lipoprotein coupled with 1,1′-dioctadecyl-3,3,3′,3′-tetramethylindocarbocyanine perchlorate) needed to bring the media concentration to 5 ug/mL of diI-LDL was added to the culture well and cells continued to be cultured under these new conditions for 4 additional hours. At the end of the 4-hour incubation period (20 total hours of cell culture), the cellular uptake was halted with the addition of 4% formaldehyde in 10 uM Hoechst 33342 in a solvent such as deionized autoclaved water or PBS, and specimens were incubated at 20° C. for 20 minutes. Cell specimens were rinsed twice with PBS and then fluorescence measured with excitation at 360 nm and emission detected at 460 nm to measure DNA content. Cell specimens were then be incubated with a 0.1% SDS in a 0.1 N NaOH solution while being shaken for 10 minutes. Fluorescence of the diI-LDL in the specimens were quantified using excitation at 530 nm and resulting emission at 580 nm.\nFluorescence measurements of diI-LDLR were normalized to estimated cell numbers, determined from the Hoechst fluorescence. […]"}, "PCSK9 GOF-D374Y protein": {"target": "PCSK9 GOF-D374Y protein (Homo sapiens, UniProt Q8NBP7, D374Y)", "sequence (Q8NBP7 153-692 D374Y)": "as the sequence (Q8NBP7 153-692) above, with D222Y counted along it", "experiment": "Cellular diI-LDL uptake in HepG2 cells with PCSK9 GOF-D374Y", "method": "[…] After 16 h, dil-LDL (5 ug/ml) was added to the incubation mixtures. After 4 h, fluorescence was measured (Ex: 520 nm/Em: 575 nm; cutoff: 550 nm). Dil-LDL uptake is calculated as RFU corrected for the number of cells.\nas §1, §2, §3\nCells were cultured using one of the combinations of conditions described in the preceding paragraph for 16 hours. […] Cell specimens were rinsed twice with PBS and then fluorescence measured with excitation at 360 nm and emission detected at 460 nm to measure DNA content. […]"}}, "note": "Where no end group is shown, it is not given here.", "data": [{"substance": "Val-Tyr-Val-Arg-Phe-Trp (VYVRFW; not fully specified (C-terminus); printed as Val-Tyr-Val-Arg-Phe-Trp) [Compound 1]", "values": [{"measurement": "LDL internalization (dil-LDL % uptake vs Cnt)", "setting": "normal PCSK9 (WT)", "value": "positively modulated (increased)"}, {"measurement": "LDL internalization (dil-LDL % uptake vs Cnt)", "setting": "PCSK9-D374Y protein; HuH7, 0.5 μg/ml PCSK9-D374Y, 100 uM peptide (FIG. 3)", "value": "positively modulated (increased)"}, {"measurement": "LDL internalization (dil-LDL % uptake vs Cnt)", "setting": "PCSK9-D374Y protein; HuH7, 0.5 μg/ml PCSK9 GOF-D374Y, increasing concentrations of peptide (FIG. 4)", "value": "positively modulated (increased)"}, {"measurement": "dose dependence of positive modulation of LDL internalization", "setting": "PCSK9-D374Y protein; HuH7, PCSK9 GOF-D374Y (FIG. 4)", "value": "positive modulation in a dose dependent manner"}, {"measurement": "percent inhibition (dil-LDL uptake)", "setting": "PCSK9-D374Y protein; HuH7, PCSK9 GOF-D374Y, peptide at 11.1 uM (FIG. 4 bottom panel)", "value": "~0", "unit": "%"}, {"measurement": "LDL internalization (dil-LDL % uptake vs Cnt)", "setting": "PCSK9 GOF-D374Y protein; HepG2, 2 μg/ml PCSK9 GOF-D374Y, dose dependent manner (FIG. 5)", "value": "positively modulated (increased)"}, {"measurement": "LDL internalization (dil-LDL % uptake vs Cnt)", "setting": "PCSK9 GOF-D374Y protein; HepG2, D374Y 0.6 ug/ml, pre-incubated 3 hrs at 37 C, dose dependent manner (FIG. 6)", "value": "positively modulated (increased)"}]}]}
